Molecular target: HA-NEK7 (mouse NIMA-related kinase 7, wild type) (mouse, UniProt Q9ES74 1-302)
Assay: BLI

Sequence of HA-NEK7 (mouse NIMA-related kinase 7, wild type) (Q9ES74 whole entry): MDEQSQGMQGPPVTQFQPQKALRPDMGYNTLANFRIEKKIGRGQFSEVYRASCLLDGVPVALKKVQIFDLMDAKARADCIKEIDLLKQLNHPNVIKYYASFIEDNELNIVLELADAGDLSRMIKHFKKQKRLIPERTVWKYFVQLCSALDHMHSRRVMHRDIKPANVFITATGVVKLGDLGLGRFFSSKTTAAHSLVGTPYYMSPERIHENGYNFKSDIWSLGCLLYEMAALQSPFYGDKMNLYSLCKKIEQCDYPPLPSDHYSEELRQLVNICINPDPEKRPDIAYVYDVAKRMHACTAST

KLVALKTNGDGNCLMHAACQYMWGVQDTD [A20-derived peptide P-II]
Kd: 197 µM
